In this test the target is the mutant kinases (GST-fused NIK1 kinase domains with single and double amino acid replacements in the A-loop, except T474D).

B1: His-tagged nuclear shuttle protein (NSP) of Cabbage leaf curl virus (CaLCuV), Q96706 1-256 (natural protein)
chain: MYPTKFRRGVSYSQRRFVSRNQSSKRGTFVRRTDGKRRKGPSSKAHDEPKMKLQRIHENQYGPEFVMTHNSALSTFINFPVLGKIEPNRSRSYIKLNRLSFKGTVKIERVHADVNMDGVISKIEGVFSLVIVVDRKPHLSSTGGLHTFDEIFGARIHSHGNLAITPGLKDRYYVLHVLKRVLSVEKDTLMVDLEGSTTISNRRYNCWASFNDLEHDLCNGVYANISKNAILVYYCWMSDAMSKASTFVSYDLDYLG
For B1, the further reduction of the residual autophosphorylation activity of the mutant kinases in vitro in the presence of GST-NSP was 50 to 70%.

Values taken from PMC2686266.
